The data set deals with RUNX1 (Homo sapiens, UniProt Q01196). In words: gcPBM; 2 nM RUNX1. As to conditions: tags: N-terminal GST (pDEST15), kept (PMC6008103); label: surface-attached array probe.
Chain of RUNX1 (Q01196 whole entry): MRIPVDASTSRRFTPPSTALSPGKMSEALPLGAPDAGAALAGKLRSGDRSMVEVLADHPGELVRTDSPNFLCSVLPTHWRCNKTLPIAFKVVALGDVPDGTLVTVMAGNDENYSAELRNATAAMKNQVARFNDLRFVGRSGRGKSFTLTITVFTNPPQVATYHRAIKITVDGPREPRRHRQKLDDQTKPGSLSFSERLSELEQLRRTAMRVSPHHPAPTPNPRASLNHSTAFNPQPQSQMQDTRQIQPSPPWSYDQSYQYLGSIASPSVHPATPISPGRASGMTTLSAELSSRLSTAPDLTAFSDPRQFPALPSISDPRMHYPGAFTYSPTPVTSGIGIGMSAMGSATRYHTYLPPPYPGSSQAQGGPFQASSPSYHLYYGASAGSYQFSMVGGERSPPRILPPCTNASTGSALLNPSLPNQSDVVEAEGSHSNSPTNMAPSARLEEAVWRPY

B1: Table S3 B row 518 (dsDNA)
DNA 1: GACCCACTGCGGTCATGCTGCTCCCTGCCCAACCCG
DNA 2: CGGGTTGGGCAGGGAGCAGCATGACCGCAGTGGGTC
Turning to B1, the binding signal is 6470 PBM fluorescence, median of replicate spots.

B2: Table S3 B row 1595 (dsDNA)
DNA 1: CAGTAGGCTGCGGTTGCGCGCGCCGGGTGTGGGCCC
DNA 2: GGGCCCACACCCGGCGCGCGCAACCGCAGCCTACTG
Take B2: the binding signal was 5670 PBM fluorescence, median of replicate spots.

B3: Table S3 B row 2650 (dsDNA)
DNA 1: CTCCTGGGCTTGTGGTTAGAGCATCATGCAGCAAGG
DNA 2: CCTTGCTGCATGATGCTCTAACCACAAGCCCAGGAG
B3: the binding signal was 6170 PBM fluorescence, median of replicate spots.

B4: Table S3 B row 875 (dsDNA)
DNA 1: CTCCTGGGCTTGTGGTTAGAACATGCTGCAGCAAAG
DNA 2: CTTTGCTGCAGCATGTTCTAACCACAAGCCCAGGAG
As for B4, the binding signal is 6070 PBM fluorescence, median of replicate spots.

B5: Table S3 B row 730 (dsDNA)
DNA 1: GTGCCTGACCACAAACCAACATTGCCTGTCTCAATT
DNA 2: AATTGAGACAGGCAATGTTGGTTTGTGGTCAGGCAC
B5: the binding signal is 6950 PBM fluorescence, median of replicate spots.

B6: Table S3 B row 1633 (dsDNA)
DNA 1: CCTTTACGTCCTTTTACTTCTAACCACAGAATTAAA
DNA 2: TTTAATTCTGTGGTTAGAAGTAAAAGGACGTAAAGG
For B6, the binding signal is 6510 PBM fluorescence, median of replicate spots.

B7: Table S3 B row 2477 (dsDNA)
DNA 1: GGTGCGGTTAAGGCGAGGCTCCTTCTTTACTGTGAC
DNA 2: GTCACAGTAAAGAAGGAGCCTCGCCTTAACCGCACC
Regarding B7, the binding signal was 6190 PBM fluorescence, median of replicate spots.

B8: Table S3 B row 2419 (dsDNA)
DNA 1: GGCTACAGCAACCGCAAGGCATCACGGAGGTCGTAG
DNA 2: CTACGACCTCCGTGATGCCTTGCGGTTGCTGTAGCC
Turning to B8, the binding signal is 5220 PBM fluorescence, median of replicate spots.

B9: Table S3 B row 3940 (dsDNA)
DNA 1: TCTCTAGTTCCCATTATTTCTGTGGTTAATTTCACC
DNA 2: GGTGAAATTAACCACAGAAATAATGGGAACTAGAGA
With B9, the binding signal was 5800 PBM fluorescence, median of replicate spots.

B10: Table S3 B row 2560 (dsDNA)
DNA 1: TGAGGTTGTGGTTAGGCAGGACGAAGCCGTTTGTAG
DNA 2: CTACAAACGGCTTCGTCCTGCCTAACCACAACCTCA
Take B10: the binding signal was 7390 PBM fluorescence, median of replicate spots.

B11: Table S3 B row 601 (dsDNA)
DNA 1: GGTTCCTTGCGGTTCGCGGCGTGCCGGGCGTGACAA
DNA 2: TTGTCACGCCCGGCACGCCGCGAACCGCAAGGAACC
As to B11, the binding signal is 5880 PBM fluorescence, median of replicate spots.

B12: Table S3 B row 2281 (dsDNA)
DNA 1: ACCCCAAACCCACAAACCCACCTGAAGGAACCAACT
DNA 2: AGTTGGTTCCTTCAGGTGGGTTTGTGGGTTTGGGGT
Regarding B12, the binding signal is 5110 PBM fluorescence, median of replicate spots.

B13: Table S3 B row 207 (dsDNA)
DNA 1: GGCTCAAAACCACAGAGAAGCCTCCTATAGTGGGAT
DNA 2: ATCCCACTATAGGAGGCTTCTCTGTGGTTTTGAGCC
Turning to B13, the binding signal was 5720 PBM fluorescence, median of replicate spots.

B14: Table S3 B row 2175 (dsDNA)
DNA 1: AAATCAAAACCACAATCAGATACCACTTGCTGCCCA
DNA 2: TGGGCAGCAAGTGGTATCTGATTGTGGTTTTGATTT
As to B14, the binding signal is 6180 PBM fluorescence, median of replicate spots.

B15: Table S3 B row 2108 (dsDNA)
DNA 1: GCTCGTTTGTGGTTACTGACACCCGGCCTTCATTTC
DNA 2: GAAATGAAGGCCGGGTGTCAGTAACCACAAACGAGC
For B15, the binding signal is 8520 PBM fluorescence, median of replicate spots.

B16: Table S3 B row 2890 (dsDNA)
DNA 1: CGGTCTGACCACAAACTCTGCCTTACGGCAAGGCTG
DNA 2: CAGCCTTGCCGTAAGGCAGAGTTTGTGGTCAGACCG
As to B16, the binding signal is 5700 PBM fluorescence, median of replicate spots.

B17: Table S3 B row 3061 (dsDNA)
DNA 1: CCTCTGCCCAACCACAATTTTCCCTTCGTCAGCCTT
DNA 2: AAGGCTGACGAAGGGAAAATTGTGGTTGGGCAGAGG
As for B17, the binding signal was 6030 PBM fluorescence, median of replicate spots.

B18: Table S3 B row 2093 (dsDNA)
DNA 1: GTTAACCGCACTGCCGCTGGCTGGGTGTCCGCGGCA
DNA 2: TGCCGCGGACACCCAGCCAGCGGCAGTGCGGTTAAC
For the molecule B18, the binding signal was 6840 PBM fluorescence, median of replicate spots.

B19: Table S3 B row 586 (dsDNA)
DNA 1: CTTGTCCCTTGTGGTTTTTTGCATTTGCTGTTCCCT
DNA 2: AGGGAACAGCAAATGCAAAAAACCACAAGGGACAAG
Take B19: the binding signal was 7790 PBM fluorescence, median of replicate spots.

B20: Table S3 B row 3404 (dsDNA)
DNA 1: TTGGTCTTGTGGTTTTGCAAGGCAGGGGTGATATAT
DNA 2: ATATATCACCCCTGCCTTGCAAAACCACAAGACCAA
Consider B20, for which the binding signal was 8240 PBM fluorescence, median of replicate spots.

B21: Table S3 B row 3681 (dsDNA)
DNA 1: CGGCACCCTCCTTCGTCCCTGCCAACCGCCTCCACC
DNA 2: GGTGGAGGCGGTTGGCAGGGACGAAGGAGGGTGCCG
On to B21, for which the binding signal was 5850 PBM fluorescence, median of replicate spots.

B22: Table S3 B row 2945 (dsDNA)
DNA 1: GCTCCTCACTGCGGTCACAGCCACATGCTGCAGAGC
DNA 2: GCTCTGCAGCATGTGGCTGTGACCGCAGTGAGGAGC
Turning to B22, the binding signal is 6290 PBM fluorescence, median of replicate spots.

B23: Table S3 B row 1223 (dsDNA)
DNA 1: ACTGCTCAAACCACAAACGATAGCAGCAAAGGCCTG
DNA 2: CAGGCCTTTGCTGCTATCGTTTGTGGTTTGAGCAGT
Consider B23, for which the binding signal was 6810 PBM fluorescence, median of replicate spots.

B24: Table S3 B row 1550 (dsDNA)
DNA 1: TGACCTTTGTGGTTTGGTCAGCAAGTGGGGTACTGG
DNA 2: CCAGTACCCCACTTGCTGACCAAACCACAAAGGTCA
On to B24, for which the binding signal is 9070 PBM fluorescence, median of replicate spots.

B25: Table S3 B row 1205 (dsDNA)
DNA 1: TCAGCCTGTGGTTTCTGAAGACCTCCTCGAAGTCAT
DNA 2: ATGACTTCGAGGAGGTCTTCAGAAACCACAGGCTGA
Regarding B25, the binding signal is 6080 PBM fluorescence, median of replicate spots.

B26: Table S3 B row 1212 (dsDNA)
DNA 1: GCTTTTCTGTGGTTTTTCTCACACGGGAATTGAGAG
DNA 2: CTCTCAATTCCCGTGTGAGAAAAACCACAGAAAAGC
Take B26: the binding signal was 8950 PBM fluorescence, median of replicate spots.

B27: Table S3 B row 1694 (dsDNA)
DNA 1: CTGCAAACCACAAAACACCTGACTGCTACGTAAGAT
DNA 2: ATCTTACGTAGCAGTCAGGTGTTTTGTGGTTTGCAG
As to B27, the binding signal is 9300 PBM fluorescence, median of replicate spots.

B28: Table S3 B row 1412 (dsDNA)
DNA 1: GTCGCCCCCACCGCAAGTATTTCAGCTTCCCTCCGC
DNA 2: GCGGAGGGAAGCTGAAATACTTGCGGTGGGGGCGAC
Regarding B28, the binding signal was 6050 PBM fluorescence, median of replicate spots.

B29: Table S3 B row 1255 (dsDNA)
DNA 1: GTCCAACCGCAGCCAGGCAAGCACACCCTGCCCCAC
DNA 2: GTGGGGCAGGGTGTGCTTGCCTGGCTGCGGTTGGAC
With B29, the binding signal is 8530 PBM fluorescence, median of replicate spots.

B30: Table S3 B row 2874 (dsDNA)
DNA 1: TCAGTGCGGTCAGGGAGTCTGTACTGCCTGGATGGC
DNA 2: GCCATCCAGGCAGTACAGACTCCCTGACCGCACTGA
For the molecule B30, the binding signal is 5600 PBM fluorescence, median of replicate spots.

B31: Table S3 B row 1736 (dsDNA)
DNA 1: CTCCTGTGGTTTCTAAACTGTCAGCATGTTGGCTTG
DNA 2: CAAGCCAACATGCTGACAGTTTAGAAACCACAGGAG
In the case of B31, the binding signal was 6800 PBM fluorescence, median of replicate spots.

B32: Table S3 B row 1899 (dsDNA)
DNA 1: CCGCCGCGACCGCAGGCCTCCGTTCAGCCGGGGTAA
DNA 2: TTACCCCGGCTGAACGGAGGCCTGCGGTCGCGGCGG
For B32, the binding signal was 6120 PBM fluorescence, median of replicate spots.

B33: Table S3 B row 871 (dsDNA)
DNA 1: ATGACCGATCAACCGCAAAGGCCGGGAATGCGTCAG
DNA 2: CTGACGCATTCCCGGCCTTTGCGGTTGATCGGTCAT
Turning to B33, the binding signal is 7280 PBM fluorescence, median of replicate spots.

B34: Table S3 B row 2350 (dsDNA)
DNA 1: CCTGTCTTGTGGTTAAGTCAAGGCAGGCAATGCTTT
DNA 2: AAAGCATTGCCTGCCTTGACTTAACCACAAGACAGG
For the molecule B34, the binding signal was 5190 PBM fluorescence, median of replicate spots.

B35: Table S3 B row 2983 (dsDNA)
DNA 1: ACTCTGTGGTTTCATTGCCTGCCCGTAAATGCAGCT
DNA 2: AGCTGCATTTACGGGCAGGCAATGAAACCACAGAGT
With B35, the binding signal was 5930 PBM fluorescence, median of replicate spots.

B36: Table S3 B row 2134 (dsDNA)
DNA 1: CACCTTGTGGTTTCTCTGAGTGTCACACCTCCCCAG
DNA 2: CTGGGGAGGTGTGACACTCAGAGAAACCACAAGGTG
For B36, the binding signal was 6600 PBM fluorescence, median of replicate spots.

B37: Table S3 B row 1458 (dsDNA)
DNA 1: TTCTCCACTGCCTTCTTTACCTCACCTACCACATAA
DNA 2: TTATGTGGTAGGTGAGGTAAAGAAGGCAGTGGAGAA
With B37, the binding signal is 5560 PBM fluorescence, median of replicate spots.

B38: Table S3 B row 2109 (dsDNA)
DNA 1: ATGTCAGTAACCACAAACGAGCCACAGCATAAGAAC
DNA 2: GTTCTTATGCTGTGGCTCGTTTGTGGTTACTGACAT
As to B38, the binding signal was 5490 PBM fluorescence, median of replicate spots.

B39: Table S3 B row 3915 (dsDNA)
DNA 1: CACCTGACCACAAGGCACACGAAGATCCTTATCACA
DNA 2: TGTGATAAGGATCTTCGTGTGCCTTGTGGTCAGGTG
On to B39, for which the binding signal is 5610 PBM fluorescence, median of replicate spots.

B40: Table S3 B row 533 (dsDNA)
DNA 1: AGTTGTGAAACCACAAAACACAGAAAGGAGGTGGTC
DNA 2: GACCACCTCCTTTCTGTGTTTTGTGGTTTCACAACT
As to B40, the binding signal is 5640 PBM fluorescence, median of replicate spots.

B41: Table S3 B row 1104 (dsDNA)
DNA 1: TTTCTGTGGTTTGGTTTCTATAGAGACACTTGCTGT
DNA 2: ACAGCAAGTGTCTCTATAGAAACCAAACCACAGAAA
In the case of B41, the binding signal is 8510 PBM fluorescence, median of replicate spots.

B42: Table S3 B row 1304 (dsDNA)
DNA 1: TCTGCTGCTTCTGTGGTTTACGGAATTTGTAACCCT
DNA 2: AGGGTTACAAATTCCGTAAACCACAGAAGCAGCAGA
For B42, the binding signal is 5370 PBM fluorescence, median of replicate spots.
